The record followed here is paper PMC3103433 (2011).

One assay has as its target VAMP2 (UniProt P63044). Kind of assay: GST pull-down, anti-Munc18c and anti-pTyr blots. The settings on record: reference: Munc18c incubated without CIRK; sites Y521.
Assay [1] concerns the target Syntaxin 4 (Sx4) cytosolic domain, 1-273 (UniProt P70452). Kind of assay: GST pull-down, anti-Munc18c and anti-pTyr blots. The settings on record: reference: Munc18c incubated without CIRK; sites Y521.
In the next assay the target is CIRK-treated Munc18c. In words: GST pull-down, anti-Munc18c immunoblot quantification. The settings on record: 1 μg GST fusion on glutathione-Sepharose, 1 μg Munc18c pre-treated with 370 ng CIRK for 150 min, binding buffer, overnight, 4°C, n=3, read off a plot, scale: % of control Munc18c bound to wild-type Sx4.

Sx4 lacking the N-terminal 36 amino acids (N36Δ), GST fusion, sequence (P70452 whole entry, looked up, stated change not applied, the tested form may be a part): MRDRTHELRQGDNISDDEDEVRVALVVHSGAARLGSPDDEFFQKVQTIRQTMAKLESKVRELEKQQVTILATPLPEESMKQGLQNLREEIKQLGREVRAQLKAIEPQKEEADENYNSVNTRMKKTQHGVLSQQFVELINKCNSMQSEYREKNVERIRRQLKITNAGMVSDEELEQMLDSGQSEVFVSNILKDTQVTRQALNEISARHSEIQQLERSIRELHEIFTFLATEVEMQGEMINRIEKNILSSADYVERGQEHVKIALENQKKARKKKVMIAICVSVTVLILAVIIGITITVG
Sx4-GST, wild-type Syntaxin 4 cytosolic domain (residues 1-273), sequence (P70452 whole entry L173A/E174A, looked up, the tested form may be a part): as the sequence (P70452 whole entry, looked up, stated change not applied, the tested form may be a part) above, with L173A, E174A counted along it

Regarding “Munc18c (from UniProt Q60770) CIRK-treated Munc18c (pTyr form absent from pull-down)”, the “binding against the reference” value with VAMP2 was “weaker”.
Take “Munc18c (from UniProt Q60770) Munc18c pre-treated with CIRK”: the other: percent decrease in assay [1] stood at 30%.
With “Sx4 lacking the N-terminal 36 amino acids (N36Δ), GST fusion (from UniProt P70452) L173A; E174A”, the other: % Munc18c bound relative to wild-type Sx4 with CIRK-treated Munc18c (parent: est. 9) is 10.
Turning to “Sx4-GST, wild-type Syntaxin 4 cytosolic domain (residues 1-273) (from UniProt P70452) L173A; E174A”, the other: % Munc18c bound relative to wild-type Sx4 with CIRK-treated Munc18c (parent: est. 71) was found to be 64.
